Values of other authors, collected in paper PMC7072806.
Like-named read-outs stand apart in the source and are kept apart here.

How the values were obtained:
[1] = molecular target: CCR5 (Homo sapiens) (UniProt P51681)
[2] = molecular target: CCR5 (Homo sapiens) (UniProt P51681); assay: SPR

UniProt P51681, sequence (P51681 whole entry): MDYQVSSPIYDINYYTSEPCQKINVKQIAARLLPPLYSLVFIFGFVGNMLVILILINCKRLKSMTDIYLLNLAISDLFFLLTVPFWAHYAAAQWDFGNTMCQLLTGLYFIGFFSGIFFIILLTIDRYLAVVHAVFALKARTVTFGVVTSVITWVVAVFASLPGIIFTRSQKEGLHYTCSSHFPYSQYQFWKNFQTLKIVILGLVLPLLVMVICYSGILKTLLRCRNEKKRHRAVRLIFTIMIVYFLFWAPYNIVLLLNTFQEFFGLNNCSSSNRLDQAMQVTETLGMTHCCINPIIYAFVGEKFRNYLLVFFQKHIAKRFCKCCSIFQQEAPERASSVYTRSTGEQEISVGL

Substance | Kd [1] | Kd [2]
RANTES (from UniProt P13501) | 0.4 nM | 
eNAMPT (from UniProt P43490) |  | 5 µM
